Where two headings read alike, the source gives them in different places.
What was measured:
mAb Z13e1 (human) = experiment: ELISA
Z13-IL22-1 (human) = target: T1, Z13-IL22-1 (human) (UniProt Q9GZX6); experiment: ITC
T1 sequence: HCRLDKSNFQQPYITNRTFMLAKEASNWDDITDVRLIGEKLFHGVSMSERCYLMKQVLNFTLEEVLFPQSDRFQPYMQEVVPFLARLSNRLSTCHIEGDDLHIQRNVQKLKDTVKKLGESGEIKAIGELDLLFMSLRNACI

Z13-IL22-2 [1] = target: T2, Z13-IL22-2 (human, UniProt Q9GZX6, SLADNNT (64–70) replaced by residues WNWDDIT); experiment: ITC
Z13-IL22-2 [2] = target: T2, Z13-IL22-2; experiment: ITC; remark: listed apart in the source
Z13-IL22-2 [3] = target: T2, Z13-IL22-2; experiment: ITC; remark: listed apart in the source
Z13-IL22-2 [4] = target: T2, Z13-IL22-2; experiment: ITC; remark: listed apart in the source
WT IL-22 = WT IL-22 (human, UniProt Q9GZX6); experiment: ELISA
Z13-IL22-2 [5] = target: T2, Z13-IL22-2; experiment: ELISA

## NWFDITNWLWYIKKKK [negative peptide control 94.1]
mAb Z13e1 (human)
  IC50: > 5000 nM

B1: Fab Z13e1 (Fab, V domains shown)
VH: EVQLLESGPGLLKPSETLSLTCTVSGGSMINYYWSWIRQPPGERPQWLGHIIYGGTTKYNPSLESRITISRDISKNQFSLRLNSVTAADTAIYYCARVAIGVSGFLNYYYYMDVWGSGTAVTVSS
VL: ELTQSPATLSLSPGERATLSCRASQSVGRNLGWYQQKPGQAPRLLIYDASNRATGIPARFSGSGSGTDFTLTISSLEPEDFAVYYCQARLLLPQTFGQGTKVEIK
Z13-IL22-1 (human)
  Kd: 15000 nM
  dH: -7.47 kcal/mol
Z13-IL22-2 [1]
  dH: -7.46 kcal/mol
Z13-IL22-2 [2]
  dH: -10.8 kcal/mol
Z13-IL22-2 [3]
  dH: -13.9 kcal/mol
Z13-IL22-2 [4]
  Kd: 73 nM

B2: mAb Z13e1 (antibody, V domains shown)
VH: B1 VH
VL: B1 VL
WT IL-22
  binding result: no binding
Z13-IL22-2 [5]
  IC50: ~150 nM

From article PMC3245871 (Journal of molecular biology, 2011)
